Consider four molecules from publication PMC4380455 (PLoS ONE, 2015).

The stoichiometry N is a count of units in the complex or per binding partner.

To fix the notation:
B1: TM1088A (natural protein, T. maritima, UniProt D3KFX7 1-143, looked up)
chain: MSKKQKSKYIVIFGCGRLGSLIANLASSSGHSVVVVDKNEYAFHRLNSEFSGFTVVGDAAEFETLKECGMEKADMVFAFTNDDSTNFFISMNARYMFNVENVIARVYDPEKIKIFEENGIKTICPAVLMIEKVKEFIIGSEED
notes: TM1088A of Thermotoga maritima MSB8 (DSM3109), full length, residues 1-143, 16.0 kDa; UniProt D3KFX7_THEMA; first open reading frame of the TM1088 locus; The same construct was purified alone (2G1U) and in complex with untagged TM1088B (3L4B) from one plasmid by different purification schemes; AMP co-purified with it; Tag residues are numbered Met(-11) to 0; also called TM_1087.1; N2 domain; …
B2: TM1088B (natural protein, T. maritima, UniProt D3KFX8 1-218, looked up)
chain: MKVIIIGGETTAYYLARSMLSRKYGVVIINKDRELCEEFAKKLKATIIHGDGSHKEILRDAEVSKNDVVVILTPRDEVNLFIAQLVMKDFGVKRVVSLVNDPGNMEIFKKMGITTVLNLTTLITNTVEALIFPDEFSSIIPLEQGIEFLSVNVEEDSPVVGKKLKDLPLPRDSIIAAIVRGGVLVVPRGDTEILSGDKLYVIVSAEAKETVEETLLGR
notes: TM1088B of Thermotoga maritima MSB8 (DSM3109), full length, residues 1-218, 24.0 kDa; UniProt D3KFX8_THEMA; also called N1 and C1 domains
B3: TM1088B C-terminal domain (domain or fragment, T. maritima, UniProt D3KFX8 140-218, looked up)
chain: IPLEQGIEFLSVNVEEDSPVVGKKLKDLPLPRDSIIAAIVRGGVLVVPRGDTEILSGDKLYVIVSAEAKETVEETLLGR
notes: TM1088B of Thermotoga maritima MSB8 (DSM3109), C-terminal domain, residues 140-218; UniProt D3KFX8_THEMA; Crystallised with the tag intact; also called TM1088B (residues 140-218); C1 domain; source: E. coli HK100, plasmid pSpeedET-TM1088B, purified (Ni-NTA agarose)

In series [1] the target is T1, TM1088A (Thermotoga maritima, UniProt D3KFX7).
T1 construct: gene TM1088
Description: X-ray crystal structure, […] Å. As to conditions: AMP co-purified from E. coli host, not added; nucleotide site GXGXXG (Gly14/Gly16/Gly19), Arg17, Ala59, Arg105; crystallised pH 6.5. Format: binding.

For series [2], the target named is B2. The series is described as follows: crystal structure; TM1088A:TM1088B octameric assembly (4 TM1088A, 4 TM1088B, 4 AMP in the asymmetric unit), 3.45 Å, PDB 3L4B; complex at 3 mg/ml with NADH added 1.1:1.0; 0.1 M magnesium chloride, 15% PEG 4000, 0.1 M HEPES pH 7.0. As to conditions: both partners purified.
Series [3] deals with the molecule itself. The series is described as follows: crystal structure; TM1088A alone, 1.50 Å, PDB 2G1U; one molecule in the asymmetric unit, dimer formed in the crystal lattice; 40% MPD, 5% PEG-8000, 0.1 M cacodylate pH 6.5, 293 K.
Series [4] concerns the molecule itself. Description: crystal structure; TM1088A:TM1088B octameric assembly (4 TM1088A, 4 TM1088B, 4 AMP in the asymmetric unit), 3.45 Å, PDB 3L4B; complex at 3 mg/ml with NADH added 1.1:1.0; 0.1 M magnesium chloride, 15% PEG 4000, 0.1 M HEPES pH 7.0.
Series [5] concerns the molecule itself. The series is described as follows: crystal structure; TM1088B C-terminal domain (140-218) alone, tag intact, 1.55 Å, PDB 3JXO; two chains in the asymmetric unit; 25% ethylene glycol, 293 K.

On to `Nc1ncnc2c1ncn2[C@@H]1O[C@H](COP(=O)(O)O)[C@@H](O)[C@H]1O` [AMP], for which the “X-ray crystal structure, 1.50 Å” value in series [1] was “AMP was co-purified with TM1088A and appears in both the high-resolution TM1088A structure”. Turning to B1, in series [2], the binding result was “binds”. Further, the “stoichiometry N” value in series [3] was 2.

For the molecule B2, the “stoichiometry N” value in series [4] was 2.

In the case of B3, in series [5], the “stoichiometry N” value came out at 2.
